# Source: patent US20070056058A1 (TARGETED GROWTH, published 2007)
# T1: Arabidopsis cyclin D2;1 (AtcyclinD2;1), FLAG tagged (Arabidopsis, UniProt P42752 1-361)
# T1 construct: Made in Sf9 insect cells from the pAcHLT transfer vector; used as insect cell protein extract
# T1 sequence: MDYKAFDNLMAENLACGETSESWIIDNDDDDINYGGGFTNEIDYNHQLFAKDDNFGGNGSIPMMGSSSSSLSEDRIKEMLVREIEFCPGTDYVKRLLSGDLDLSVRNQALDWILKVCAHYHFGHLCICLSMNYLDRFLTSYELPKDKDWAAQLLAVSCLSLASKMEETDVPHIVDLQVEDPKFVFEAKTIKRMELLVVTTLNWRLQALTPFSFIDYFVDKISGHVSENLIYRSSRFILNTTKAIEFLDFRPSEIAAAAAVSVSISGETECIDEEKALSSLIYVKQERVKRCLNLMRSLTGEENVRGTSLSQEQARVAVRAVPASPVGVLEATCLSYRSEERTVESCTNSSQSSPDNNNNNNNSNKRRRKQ
# B1: BnKRP1 wild type (Brassica napus Krp1), construct BnKrp #461 (other, not shown: small tags and cut ends)
# chain: MVRKCRKTKGTVGASSTYMQLRSRRIVYRSEKASSSSSSCCASNNNGVIDLEEERDGETETSSCRRSSKRKLFENLREKESMENSQQIVAGFDSAVKESSDCCCSRRTSLSTTEEKGKSATEQPPTAVEIEDFFVEAEKQLHDNFKKKYNFDFEKEKPLEGRYEWVKL
# B2: BnKrp1 F151A, construct #572 (other)
# chain: MVRKCRKTKGTVGASSTYMQLRSRRIVYRSEKASSSSSSCCASNNNGVIDLEEERDGETETSSCRRSSKRKLFENLREKESMENSQQIVAGFDSAVKESSDCCCSRRTSLSTTEEKGKSATEQPPTAVEIEDFFVEAEKQLHDNFKKKYNADFEKEKPLEGRYEWVKL
# notes: also called BnKrp1 #572; not shown: N-terminal 6xHis and poly-Myc tags of pET16b-5MYC
# B3: BnKrp1 Y149A, construct #587 (other)
# chain: MVRKCRKTKGTVGASSTYMQLRSRRIVYRSEKASSSSSSCCASNNNGVIDLEEERDGETETSSCRRSSKRKLFENLREKESMENSQQIVAGFDSAVKESSDCCCSRRTSLSTTEEKGKSATEQPPTAVEIEDFFVEAEKQLHDNFKKKANFDFEKEKPLEGRYEWVKL
# notes: also called BnKrp1 #587; not shown: N-terminal 6xHis and poly-Myc tags of pET16b-5MYC
# Tests used:
# [1] = molecular target: AtcyclinD2;1/AtCDKA active kinase complex (Arabidopsis) (UniProt P42752); experiment: cell-based or functional assay
# [2] = molecular target: T2, AtcyclinD2;1/AtCDKA active kinase complex (Arabidopsis, UniProt P42752 1-361; P24100 1-294); experiment: cell-based or functional assay
# [3] = molecular target: T2, AtcyclinD2;1/AtCDKA active kinase …; experiment: in vitro binding experiments
# [4] = molecular target: T1, Arabidopsis cyclin D2;1 (AtcyclinD2;1), …; experiment: in vitro binding, graded (column Cyclin binding)
# T2 sequence (P24100 other isoform, or with tags, fused parts or gaps limits assumed): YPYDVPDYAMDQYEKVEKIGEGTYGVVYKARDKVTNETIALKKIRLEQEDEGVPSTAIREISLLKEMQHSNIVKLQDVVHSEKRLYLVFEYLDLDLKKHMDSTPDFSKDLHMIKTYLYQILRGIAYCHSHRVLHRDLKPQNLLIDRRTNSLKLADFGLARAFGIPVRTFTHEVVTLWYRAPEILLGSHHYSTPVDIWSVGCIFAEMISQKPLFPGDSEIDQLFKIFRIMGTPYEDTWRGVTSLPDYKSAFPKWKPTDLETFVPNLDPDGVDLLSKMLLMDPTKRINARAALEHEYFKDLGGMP
# AtcyclinD2;1/AtCDKA active kinase complex (Arabidopsis), sequence (P24100 other isoform, or with tags, fused parts or gaps limits assumed): as above
molecule,measurement,setting,value
"BnKrp1 #462 (E129A, E130A, I131A, D132A), cyclin binding region mutant",IC50 (inhibitory concentration that reduces the kinase activity by 50%),[1],1.25 µg
"BnKrp1 E164A; W165A, construct #555",kinase activity restored by 5 µg mutant in the presence of wild-type KRP1,[1],14%
same,kinase activity restored by 10 µg mutant in the presence of wild-type KRP1,[1],15%
"BnKrp1 Y149A; F151A; F153A, construct #598",kinase activity restored by 5 µg mutant in the presence of 0.6 µg wild-type KRP1,[1],< 55%
same,kinase activity restored by 10 µg mutant in the presence of wild-type KRP1,[1],< 80%
"ZmKRP4 (maize KRP, Genbank accession # AY986792)",IC50 of kinase inhibition,[1],0.035 µg
B1,IC50 (inhibitory concentration that reduces the kinase activity by 50%),[2],0.035 µg
B2,binding result,[3],binds
same,binding result,[4],binds
B3,binding result,[3],binds
